pIC50: −log10 of the molar value. Like-named read-outs stand apart in the source and are kept apart here. No end group written: not given here.

Test [1] deals with T1, DPP-IV (Homo sapiens, UniProt P27487).
T1 construct: purchased Cayman Chemical 700210
As to conditions: read-out: IC50, DPP-IV inhibition, cited from earlier work.

In test [2] the target is T1, DPP-IV. The experiment in a line: DPP-IV inhibitory activity in vitro (Cayman DPP (IV) inhibitor screening assay kit). Format: biochemical. The conditions noted are these: substrate Gly-Pro-AMC, 37 °C, 30 min, fluorescence 355/460 nm; dose–response range from 0.52 to 3.65 μM; drc package in R; read-out: IC50, DPP-IV inhibition. The method, then: Based on the results of the virtual screening, the optimal oyster peptide (key peptide sequences with potent DPP-IV inhibition) was selected and synthesized by Wuxi Maimertop Biotechnology Co., Ltd. (Wuxi, China). Then, the synthesized peptide was subjected to the DPP-IV inhibition activity verification. The DPP-IV inhibitory activity was determined following the instructions of commercial kits: a DPP (IV) inhibitor screening assay kit (700210 Cayman chemicals, USA). Briefly, 30 µL of assay buffer, 10 µL of DPP-IV enzyme, and 10 µL of peptide solution were added to a 96-well plate. Then, 50 µL of substrate (Gly-Pro-AMC, Sigma-Aldrich, Saint Louis, MO, USA) was added to start the reaction. After incubation at 37 °C for 30 min, the absorbance of the reaction mixture was detected under excitation and emission wavelengths of 355 nm and 460 nm, respectively. The DPP-IV inhibitory activity was calculated using the following formula:(1) DPP-IV Inhibition (%)=A− B/A×100% where A was the average fluorescence of 100% initial activity (blank) and B was the fluorescence of the sample.
The 50% inhibitory concentration (IC50) of DPP-IV enzyme activity was calculated using the drc package (https://cran.r-project.org/web/packages/drc/ accessed on 20 July 2024) in R 4.1.2.

Setting [3] is: food-derived peptides from silver carp proteins.
Setting [4] is: food-derived peptides from Sorghum bicolor.
Setting [5] is: food-derived peptides from sheep.

T1 sequence (P27487 whole entry): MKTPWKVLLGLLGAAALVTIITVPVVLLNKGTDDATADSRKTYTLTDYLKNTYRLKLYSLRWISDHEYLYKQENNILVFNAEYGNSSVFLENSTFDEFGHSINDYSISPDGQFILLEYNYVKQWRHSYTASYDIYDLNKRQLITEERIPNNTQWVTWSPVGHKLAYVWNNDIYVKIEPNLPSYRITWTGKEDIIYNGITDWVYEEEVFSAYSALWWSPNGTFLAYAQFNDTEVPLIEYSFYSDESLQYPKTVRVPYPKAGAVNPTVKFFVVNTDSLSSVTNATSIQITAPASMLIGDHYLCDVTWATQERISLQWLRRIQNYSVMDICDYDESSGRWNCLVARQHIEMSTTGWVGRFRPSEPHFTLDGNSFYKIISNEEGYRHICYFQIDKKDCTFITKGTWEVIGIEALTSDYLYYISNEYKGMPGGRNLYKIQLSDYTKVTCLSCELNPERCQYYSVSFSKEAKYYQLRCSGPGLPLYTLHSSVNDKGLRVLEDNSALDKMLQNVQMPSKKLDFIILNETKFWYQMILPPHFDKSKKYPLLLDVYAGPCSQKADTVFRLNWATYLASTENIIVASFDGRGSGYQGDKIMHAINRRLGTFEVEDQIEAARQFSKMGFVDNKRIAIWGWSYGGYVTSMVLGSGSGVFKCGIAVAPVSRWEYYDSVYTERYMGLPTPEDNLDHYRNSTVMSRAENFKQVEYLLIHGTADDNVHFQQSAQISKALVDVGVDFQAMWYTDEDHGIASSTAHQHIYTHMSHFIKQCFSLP

For the substance “APGPAG [food-derived peptide from silver carp proteins]”, the pIC50 in test [1] (setting [3]) was 3.64.
As to “LPIIDI [food-derived peptide from silver carp proteins]”, the pIC50 in test [1] (setting [3]) was 3.98.
With LRGFGNPPT, in test [2], the pIC50 was 5.81.
As to “LSICGEESFGTGSDHIR [food-derived peptide from Sorghum bicolor]”, in test [1] (setting [4]), the pIC50 was 4.13.
Take “MQEHFTCCR [food-derived peptide from sheep]”: in test [1] (setting [5]), the negative-log IC50 (pIC50) is 3.67.
As for “QLRDIVDK [food-derived peptide from Sorghum bicolor]”, the pIC50 in test [1] (setting [4]) is 5.07.
Regarding “RLYLHENK [food-derived peptide from sheep]”, the pIC50 in test [1] (setting [5]) is 3.78.
Regarding “SLGESLLQEDVEAHK [food-derived peptide from Sorghum bicolor]”, the negative-log IC50 (pIC50) in test [1] (setting [4]) was 4.08.

Usually pIC50 stands for the negative decadic logarithm of the IC50, by convention in mol/L.

These data come from PMC11355449, “The Discovery and Characterization of a Potent DPP-IV Inhibitory Peptide from Oysters for the Treatment of Type 2 Diabetes Based on Computational and Experimental Studies” (Marine Drugs, 2024).
